Measurements: the DeepSol protein solubility set

Assay: soluble on expression in E. coli; label from the status in PepcDB or PDB records

Sequence	soluble on expression in E. coli
METKWRNGDIVQPVLNPEPNTVSYSQSSLIHLVGPSDCTLHGFVHGGVTMKLMDEVAGIVAARHCKTNIVTASVDAINFHDKIRKGCVITISGRMTFTSNKSMEIEVLVDADPVVDNSQKRYRAASAFFTYVSLNQEGKPMPVPQLVPETEDEKKRFEEGKGRYLQMKAKRQGHTEPQP	soluble
MSLANWVASSTVTADGHHLLGNPAAKLRLVEFVSYTCPHCSHFEIESEGQLKIGMVQPGKGAIEVRNFVRDPIDMTVALITNCVPPSRFFTLHTAFMRSQAQWIGPLANSTEAQRQRWFNGTFATRTRAIASDFRFYDFMAARGMDRSTLDRCLSNEALAKKLAAETDEAINQYNVSGTPSFMIDGILLAGTHDWASLRPQILARLNEGHHHHHH	soluble
MAAGESMAQRMVWVDLEMTGLDIEKDQIIEMACLITDSDLNILAEGPNLIIKQPDELLDSMSDWCKEHHGKSGLTKAVKESTVTLQQAEYEFLSFVRQQTPPGLCPLAGNSVHADKKFLDKHMPQFMKHLHYRIIDVSTVKELCRRWYPEDYEFAPKKAASHRALDDISESIKELQFYRNNIFKKKTDEKKRKIIENGETEKPVS	soluble
MGSDKIHHHHHHMPGWAGYYLEFHGNAYSAPFSADIYINVAYPYDGKLVELGGSILGHNQYFYVKSPYTFPDNVHNVDGYVVEWFDEDWQKWVLWHVSYKPALQVIGCPYVSTWNGIEYVPENTVLVESEILKPRKHMDLTDYYLINNSHTIRENIYSIQLQEFEQDTSYIDSIELLVVDYPQGLELSLDPQGNIVLYIPIHTRLNTRFTTEIASSNVNRLKTDLVIVSPYVKTSYSFKVNKVYENKSVESIHLYPRMFPYRYALFTDKDISKLKMELNDHKLYSIEYGIPVNASYHIVKEKPLLATSDIGGEITEELLEDDGHYAVLTPGDNITLNFKVPPALSSRMKRALILVIKGFYVQKPPTLTKDAVRVIYVPEINGYLFVPLLETYDEILSIMWDFGDGTTSDFFVPFHVYKQGKYKGSLKVKYLNGKTLTIPFYWGG	not soluble
GFRWASNATFTLNRNKVKRLAGGSTNPVTGELIDMPNMPVGWLGKENVAPRVILTEGGTMTDIYVYNELTKDNNGNIKVDAQTGGLSMHTAETPTKVGNLNANYNLGWTNNFTYKGINLGVVLSARVGGLAYSATQGVLDYYGVSSITANARDNKGVPMNNGKVDTQKYYQTIGTGEGGYGRYYLYSATNVRLQELSLSYTLPKKWLNNVANVTFGLVGRNLWMIYCKAPFDPELSASTSSNYYMNVDYFMQPSMRNIGFNVKVQF	not soluble
MRGSHHHHHHGMASNEFPVVLVINCGSSSIKFSVLDVATCDVLMAGIADGMNTENAFLSINGDKPINLAHSNYEDALKAIAFELEKRDLTDSVALIGHRIAHGGELFTQSVIITDEIIDNIRRVSPLAPLHNYANLSGIDAARHLFPAVRQVAVFDTSFHQTLAPEAYLYGLPWEYFSSLGVRRYGFHGTSHRYVSRRAYELLDLDEKDSGLIVAHLGNGASICAVRNGQSVDTSMGMTPLEGLMMGTRSGDVDFGAMAWIAKETGQTLSDLERVVNKESGLLGISGLSSDLRVLEKAWHEGHERARLAIKTFVHRIARHIAGHAASLHRLDGIIFTGGIGENSVLIRQLVIEHLGVLGLTLDVEMNKQPNSHGERIISANPSQVICAVIPTNEEKMIALDAIHLGNVKAPVEFA	soluble
MGSDKIHHHHHHMKVYLVGGAVRDQLLGLPVKDRDWIVVGADPATLLSLGYQQVGKDFPVFLNPKTKEEYALARTERKSSAGYTGFICDFSPTITLEQDLIRRDLTINAMAQSEDGEIIDPYGGKQDLENRILRHISPAFSEDPLRVLRVARFAARYHSLGFKIASETLALMAELAQSGELQHLTAERIWLETEKALNEKNPEIYFETLHKTGALSVLFSEIDALYGVPNPVKHHPEVDSFIHTMLVLKQAVNLTENNPILNKSAVRFAAICHDLGKALTPQNILPHHYGHEQAGIKPTRSLCKRLKVPSYFQELAELTCEFHTHIHKAFELRAETVITLFNRFDVWRKPQRFQEFLQVCLADTRGRTGFETKDYPQIDYINQLLHAANEVDVQQVIADGFEKQAIKNELTKRRILAVKQTKTNYPTN	not soluble
MAMAKARKPREALLWALSDLEENDFKKLKFYLRDMTLSEGQPPLARGELEGLIPVDLAELLISKYGEKEAVKVVLKGLKVMNLLELVDQLSHICLHDYREVYREHVRCLEEWQEAGVNGRYNQVLLVAKPSSESPESLACPFPEQELESVTVEALFDSGEKPSLAPSLVVLQGSAGTGKTTLARKMVLDWATGTLYPGRFDYVFYVSCKEVVLLLESKLEQLLFWCCGDNQAPVTEILRQPERLLFILDGFDELQRPFEEKLKKRGLSPKESLLHLLIRRHTLPTCSLLITTRPLALRNLEPLLKQARHVHILGFSEEERARYFSSYFTDEKQADRAFDIVQKNDILYKACQVPGICWVVCSWLQGQMERGKVVLETPRNSTDIFMAYVSTFLPPDDDGGCSELSRHRVLRSLCSLAAEGIQHQRFLFEEAELRKHNLDGPRLAAFLSSNDYQLGLAIKKFYSFRHISFQDFFHAMSYLVKEDQSRLGKESRREVQRLLEVKEQEGNDEMTLTMQFLLDISKKDSFSNLELKFCFRISPCLAQDLKHFKEQMESMKHNRTWDLEFSLYEAKIKNLVKVKFLKGKSEERMKETLP	soluble
MTAKPLPIFLLPISAIRKAMEQMSFAELLIISILSKNAKDFVTLLTKPLKNMIISVDCWLSLKLVTASSELYLLYFKRKQRVRIEKSPYDKRYKKLYLPGFTEKQWIGHIVRVFSHNNGIVLSLKPLFSFRRGKIKETVELFKGLNVRKLVNHDSRIENRQLLKLFPTPNYLRLSNDYICESILVQNFETLELLEKKLSLNDILTTNCTNLEIHYQSLSDRNLNLFMKHWIRGSNPNLQSICVNFSREMRSFGAEVFKGIDHRKTIPQENFYWGKH	not soluble
GMTAPTLSRAAMEKVIRTYYDGCNEADEAKMIACFVPEAVHYFPAGMYGGAFRGAAQIAHRWRTAVETLGSYWTIDALVIDAETAEAAIEWTHFKTNQDKVLRGAECVEFDRASGLIREIRAFYASPQAEGIARLELGDFDYAGRGYRVTSPRKPA	soluble
SQYSAQRDLRMSPGDTVELGGYHFLFDGAKHHEGPNYTSDKGSIHVSRDGKEIATLHPEKRLYTVQSSMMTEAGIDAGFTRDLYVALGEPLENGAWAVRVHVKPFVR	not soluble
MGSDKIHHHHHHQQKSADVVENQFTTIKEVPITPVKDQANSGTCWSYSALGFLESEILRMGKPEVDLAEMHSVAQSYKDKGEKYVRMHGKLNFGQGGSFYDVLYVVKHYGVVPQSVMQGLNYGTKKNAHSELADGALAYLKAIVTNPNGKLTPAWKKAYDGIIDSYLGTCPETFTYEGKTYTPKSFAQYLGLNVDDYVSLTSYTHHPFYTQFALEIEDNWRGSLSYNMPINELMETMEYAINNGYSIAWGSDVSEVGFTRDGIGVLADVEGIEAKGSDQDRWVGLSRAEKQAEIIRTVNSADCPEINPTQEFRQKGYDEYSLTDDHGMVIYGIAKNQNGRKFFMVKNSWGETGKYKGIWYASYNFVAGRTMNIIVHKKAIPAAIAKKLGIRQ	not soluble
MGLSTSNKPLSERIEESKKDVFMQKAVAKAQDAQWEKREGAREALGNWPQWRELGEQIRQHTIQYLPDYLEEFSDNVAKRGGKVFFAQTAEEANEYVKQVVLEKKAKKIVKSKSMVTTEVDIDPMLLGLDDVSVMETDLAEFILQMDDWDEPSHIVFPSIHKNREQIRQVFAKKLGYQGDNDPVNLARCAREVMRKFFLEAEIGITGCNFAIADSGLINLNTNEGNADLTISIPKTQIVLMGMERIVPTMREAEVLDNLLARSAVGQNLTTYVTFAGQKNADESDGPEEFHVVILDNGRSKALGTAFQPVLQCIRCGSCLNVCPVYRHIGGHGYGSIYPGPIGAVLSPILGGYKQFGELPYASSLCGACTETCPVKIPLHELLIEHRKVMTDDLKMKHGFEDFQMRMVGKATGSPAMFKAAMKVDHAAAGILSKQKDITVENMYNHGGYLDKGPGLVKGWTDVRDLPRPPKSSENFRSWFKKHQEGEKND	not soluble
MGSDKIHHHHHHVTNKRPIAFDATPDTLRRSLVLSAAAASGLGLLPGAMRDARAQSFPPLGNFPAGTEGNSVFVGVSVPLTGAFSAEGKDQQLGFELAFEHLNSGKLAGKIPELKGKGVLGKTITFGVVDTEAKAESAIQGQTRFLRNNKAILMTGCYSSAVTVALGKLAQREKVLYMAGPAGSDDVTGKDCQRYSFRSQPSTTMASRALAPVLAERLGKGKKVAYLVPDYTFGHTQFESMARLTEPMGWKTVSKQVCPIGTADFSTYLLNIANSGADVFVNCTVGNDCSVSIKQAKNFGVMKNAALVVPTLQPFLAQQLGPEVTQDILGVMDFWWSLAESNELAKQFVDDFQAKHNYKPYWPAHIAYSQMLIWAVAVERAKTFYPPEVIKALEARVPIRTTLGDVMYRPEDHQLVRPVPVMRGKKPSEMKSKDDYYEVIKMIPGADAVTPLDQGTCKMGELT	not soluble
MSLKAVSEADIQAALKEGGTITVWAWEPTLKQVATDFEKEHPGVKVDLVNAGTNKDQYTALQNAISAKKGVPDVAQIEYYAMGQYALTKQLTDLKSFGADKLSAQFSPGPWNGVKAGSDGVYALPMDSGPMALFYNKKVFDKYDIKVPTTWAEYLDAARDLHKADPKAYITADNGDAGFATSMLWQAGSRPYTVDGTKVKIDFSDQGAKTFTETWQQLIDEKLLASVPAWTDEWYKGLGDGSIATLATGAWMPANLESGAKSASGDWRVAPMPQWKAGDKVSAENGGSALALPELGKNEALAYAFVEYANAGDGVQTRLKNGAFPATTADLQSTRFQDTAFPYFGGQKANKIFAESAADVPDDWSYLPYQVYANSVFNDTVGKAYVSGTTLAEGLESWQEASVKYDEEQGLPSRRKGIITITTDPNSSSVDKLAAALEHHHHHH	soluble
MEKLKEFRGIKEHLGVFREAVKDAERIGFAGVPGVCTPFAQLFAYAVRDKDNIFIPNTDFSKARKLEVTEYGVELGEISPGNVDVLVLLGGLSMPGIGSDIEDVKKLVEDALEEGGELMGLCYMDMFARAGWYELLDFDCVINADIDGYVLRG	soluble
MSLQENPYQLVKDVEGIGFGKADELGSRMGLSGNHPERVKAAILYTLETTCLSEGHTYIETEQLIIDTQSLLNQSAREGQRITEMDAANAIIALGENKDIVIEDGRCYFPSLFYAEQNVAKRVKHIASQTEYENQFPESEFLLALGELEERMDVQYAPSQKEAIQKALSSPMLLLTGGPGTGKTTVIRGIVELYGELHGVSLDPSAYKKDEAFPIVLAAPTGRAAKRMSESTGLPAVTIHRLLGWNGAEGFTHTEDQPIEGKLLIIDEASMLDIWLANHLFKAIPDHIQIIIVGDEDQLPSVGPGQVLRDLLASQVIPTVRLTDIYRQAEGSSIVELAHQMKNGLLPNNLTAPTKDRSFIRCGGSQIKEVVEKVVANALKKGYTAKDIQVLAPMYRGKAGINELNVMLQDILNPPKEKRRELKFGDVVYRTGDKILQLVNQPENNVFNGDIGEITSIFYAKENTEKEDMAVVSFDGNEMTFTKKDFNQFTHAYCCSIHKSQGSEFPIVVLPVVKGYYRMLRRNLLYTAITRAKKFLILCGEEEALEWGVKNNDATVRQTSLKNRLSVQVEEGHHHHHH	soluble
MTTRQIKIVPKLIAIFTGKAAVRAAWGGRGSGKTRSFALMAALKGYQFGMGGISGTILCARQFQNSLAESSLEEIKRAIEGHDFLKDYYKVGESSIKSIDGRIAFQFSGLDRNIASIKSMGRILLCWVDEAEPVTETAWQTLIPTLREEGEGWRAELWVTWNPLRDNAPVERRFRFSNNEAIKRVEINWSDNPKFPKILNEARLDDLKNRPETYKHIWEGAYLTAVQGAYYQKEMLAAEQEGRIGRVARDPLMQMRAFWDIGGTGAKADATAIWIAQFVGREIRVLDYYEAQGQPLSEHIGWLRRNGYEKALMVLPHDGATRDRVHNVSFESALNDAGFETQVIPHQGAGAVKMRIEAVRRILPSVWFHEETTVAGRKALNWYHEKWDEKRGIGLGAEHDWSSHGADAFGLMCIVYEAPRIKPQQERYRAIEREAASWMAF	not soluble
